This is an account of results in patent US20130131319A1 (Chugai, published 2013).

For assay [1], the target named is T1, soluble human plexin A1 (hsPlexin A1) (human, UniProt Q9UIW2 27-1243).
T1 construct: range 27-1243
Briefly: Biacore, antibody on protein A/G, hsPlexin A1 analyte, 37C, pH 6.0. In general terms: SPR reads the build-up and loss of mass on a sensor chip optically.
Protocol: (§1) Assay was carried out using 10 mmol/l ACES/150 mmol/l NaCl containing 0.05% Surfactant P20 (pH 7.4 and pH 6.0) as a running buffer. […] Assays were carried out at 37 degrees C. The assay results were analyzed using Biacore T100 Evaluation Software (GE Healthcare), and the association rate constant, ka (1/Ms), and the dissociation rate constant, kd (1/s), were calculated from the assay results. Then the KD (M) was calculated from ka and kd (Table 15). Furthermore, the pH-dependent binding was evaluated to calculate the KD ratio between pH 7.4 and pH 6.0 for each antibody.

Assay [2] has as its target T1, soluble human plexin A1 (hsPlexin A1). Nature of the assay: Biacore, antibody on protein A/G, hsPlexin A1 analyte, 37C, pH 7.4.
Protocol: as §1
In assay [3] the target is T2, soluble human FcRn (complex of FcRn and beta2-microglobulin) (human, UniProt P55899 24-297; P61769 21-119).
T2 construct: Secreted from HEK293H
Briefly: Biacore pH 7.0 (Example 9 method).
Protocol: (§2) The binding between antibody and human FcRn was kinetically analyzed using Biacore T100 (GE Healthcare). An appropriate amount of protein L (ACTIGEN) was immobilized onto Sensor chip CM4 (GE Healthcare) by the amine-coupling method, and the chip was allowed to capture an antibody of interest. Then, diluted FcRn solutions and running buffer as a reference solution were injected to allow for human FcRn to interact with the antibody captured on the sensor chip. The running buffer used comprised 50 mmol/l sodium phosphate, 150 mmol/l NaCl, and 0.05% (w/v) Tween20 (pH 7.0). FcRn was diluted using each buffer. The chip was regenerated using 10 mmol/l glycine-HCl (pH 1.5). Assays were carried out at 25 degrees C.
(§3) KD (M) of each antibody was derived from the sensorgram data using Biacore T100 Evaluation Software (GE Healthcare), which simultaneously fits the association and dissociation phases of the sensorgrams and globally fits all curves in the working set. Sensorgrams were fit to 1:1 binding model, the “Langmuir binding” model, supplied by Biacore T100 Evaluation Software. For some of the binding interactions, KD was derived by nonlinear regression analysis of plots of Req, the equilibrium binding response, versus the log of the analyte concentration using an equilibrium-based approach.

Assay [4] concerns the target T2, soluble human FcRn (complex of FcRn and …). Nature of the assay: Biacore pH 7.0 (Example 9 method). The source holds these as a separate data set.
Protocol: as §2, §3
Assay [5] has as its target T3, human IL-6 (TORAY) (human, UniProt P05231 30-212, limits assumed).
T3 construct: also called hIL-6
Briefly: Biacore, antibody on protein A/G, IL-6 analyte, 37C, pH 5.5.
Protocol: (§4) Assay was carried out using 10 mmol/l ACES/150 mmol/l NaCl containing 0.05% Surfactant P20 (pH 7.4 and pH 6.0) as a running buffer. After antibodies were bound to recombinant proteinA/G (Thermo Scientific) immobilized on sensor chips using an amino-coupling method, appropriate concentrations of human IL-6 (TORAY) as an analyte were injected. Assays were carried out at 37 degrees C. The assay results were analyzed using Biacore T100 Evaluation Software (GE Healthcare), and the association rate constant, ka (1/Ms), and the dissociation rate constant, kd (1/s), were calculated from the assay results. […] Furthermore, the pH-dependent binding was evaluated to calculate the KD ratio between pH 7.4 and pH 6.0 for each antibody.

The target of assay [6] is T3, human IL-6 (TORAY). Briefly: Biacore, antibody on protein A/G, IL-6 analyte, 37C, pH 7.4.
Protocol: as §4
Assay [7] addresses T2, soluble human FcRn (complex of FcRn and …). Briefly: Biacore steady-state, antibody immobilized, pH 6.0, 25C.
Protocol: (§5) The antibodies were tested as a test substance after direct immobilization onto Series S Sensor Chip CM5. Using an amino-coupling kit according to the supplier's instruction manual, the antibodies were immobilized onto Sensor Chip so as to secure an immobilization amount of 500 RU. The running buffer used was 50 mmol/l Na-phosphate/150 mmol/l NaCl containing 0.05% (v/v %) Surfactant P20 (pH 6.0).
(§6) With the prepared sensor chips, assay was carried out using as a running buffer, 50 mmol/l Na-phosphate/150 mmol/l NaCl containing 0.05% Surfactant P20 (pH 6.0) or 50 mmol/l Na-phosphate/150 mmol/l NaCl containing 0.05% Surfactant P20 (pH 7.4). Assays were carried out exclusively at 25 degrees C. The diluted human FcRn solutions and running buffer as a reference solution were injected at a flow rate of 5 microliter/min for ten minutes to allow for human FcRn to interact with the antibody on the chip. Next, the running buffer was injected at a flow rate of 5 microliter/min for one minute to monitor the dissociation of FcRn. […]
(§7) The assay results were analyzed using Biacore T100 Evaluation Software (Ver. 2.0.1). By a steady-state affinity method, the dissociation constant (KD) was calculated from the assay results at six different FcRn concentrations.
Assay [8] shares this target. Briefly: Biacore steady-state, antibody immobilized, pH 6.0, 25C; pH 6.0.
Protocol: as §5, §6, §7
Assay [9] shares this target. Briefly: Biacore steady-state, antibody immobilized, pH 7.4, 25C; pH 7.4.
Protocol: as §5, §6, §7
Assay [10] has the same target. Briefly: Biacore steady-state, antibody immobilized, pH 7.4, 25C.
Protocol: as §5, §6, §7
For assay [11] the target is unchanged. Briefly: Biacore pH 7.0.
Protocol: (§8) The binding between antibody and human FcRn was kinetically analyzed using Biacore T100 (GE Healthcare). […] An appropriate amount of protein L (ACTIGEN) was immobilized onto Sensor chip CM4 (GE Healthcare) by the amino coupling method, and the chip was allowed to capture an antibody of interest. Then, diluted FcRn solutions and running buffer (as a reference solution) were injected to allow human FcRn to interact with the antibody captured on the sensor chip. The running buffer used comprised 50 mmol/l sodium phosphate, 150 mmol/l NaCl, and 0.05% (w/v) Tween20 (pH 7.0). FcRn was diluted using each buffer. The chip was regenerated using 10 mmol/l glycine-HCl (pH 1.5). Assays were carried out exclusively at 25 degrees C. The association rate constant ka (1/Ms) and dissociation rate constant kd (1/s), both of which are kinetic parameters, were calculated based on the sensorgrams obtained in the assays, and KD (M) of each antibody for human FcRn was determined from these values. Each parameter was calculated using Biacore T100 Evaluation Software (GE Healthcare).
Assay [12] shares this target. Nature of the assay: Biacore pH 7.0. This is another data set of the same source.
Protocol: as §8
For assay [13] the target is unchanged. Nature of the assay: Biacore pH 7.0. The source holds these as a separate data set.
Protocol: as §8
Assay [14] shares this target. Briefly: Biacore pH 7.0. This is another data set of the same source.
Protocol: as §8

Where a chain is given by its changes, count along the chain named. Names may count otherwise.

T2 sequence (P55899 24-297 limits assumed, chain 1 of 2): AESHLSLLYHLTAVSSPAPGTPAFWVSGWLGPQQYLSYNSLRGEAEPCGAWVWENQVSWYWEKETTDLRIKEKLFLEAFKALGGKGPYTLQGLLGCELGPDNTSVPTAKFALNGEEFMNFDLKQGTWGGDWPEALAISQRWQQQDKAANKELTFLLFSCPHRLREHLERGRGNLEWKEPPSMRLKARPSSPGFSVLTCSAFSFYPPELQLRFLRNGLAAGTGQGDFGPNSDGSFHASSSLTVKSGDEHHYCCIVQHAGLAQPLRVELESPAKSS
T2 sequence (P61769 21-119 limits assumed, chain 2 of 2): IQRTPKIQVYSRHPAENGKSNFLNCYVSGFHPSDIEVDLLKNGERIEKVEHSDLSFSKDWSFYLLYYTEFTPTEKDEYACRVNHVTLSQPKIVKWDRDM
T1 sequence (Q9UIW2 other isoform, or with tags, fused parts or gaps limits assumed): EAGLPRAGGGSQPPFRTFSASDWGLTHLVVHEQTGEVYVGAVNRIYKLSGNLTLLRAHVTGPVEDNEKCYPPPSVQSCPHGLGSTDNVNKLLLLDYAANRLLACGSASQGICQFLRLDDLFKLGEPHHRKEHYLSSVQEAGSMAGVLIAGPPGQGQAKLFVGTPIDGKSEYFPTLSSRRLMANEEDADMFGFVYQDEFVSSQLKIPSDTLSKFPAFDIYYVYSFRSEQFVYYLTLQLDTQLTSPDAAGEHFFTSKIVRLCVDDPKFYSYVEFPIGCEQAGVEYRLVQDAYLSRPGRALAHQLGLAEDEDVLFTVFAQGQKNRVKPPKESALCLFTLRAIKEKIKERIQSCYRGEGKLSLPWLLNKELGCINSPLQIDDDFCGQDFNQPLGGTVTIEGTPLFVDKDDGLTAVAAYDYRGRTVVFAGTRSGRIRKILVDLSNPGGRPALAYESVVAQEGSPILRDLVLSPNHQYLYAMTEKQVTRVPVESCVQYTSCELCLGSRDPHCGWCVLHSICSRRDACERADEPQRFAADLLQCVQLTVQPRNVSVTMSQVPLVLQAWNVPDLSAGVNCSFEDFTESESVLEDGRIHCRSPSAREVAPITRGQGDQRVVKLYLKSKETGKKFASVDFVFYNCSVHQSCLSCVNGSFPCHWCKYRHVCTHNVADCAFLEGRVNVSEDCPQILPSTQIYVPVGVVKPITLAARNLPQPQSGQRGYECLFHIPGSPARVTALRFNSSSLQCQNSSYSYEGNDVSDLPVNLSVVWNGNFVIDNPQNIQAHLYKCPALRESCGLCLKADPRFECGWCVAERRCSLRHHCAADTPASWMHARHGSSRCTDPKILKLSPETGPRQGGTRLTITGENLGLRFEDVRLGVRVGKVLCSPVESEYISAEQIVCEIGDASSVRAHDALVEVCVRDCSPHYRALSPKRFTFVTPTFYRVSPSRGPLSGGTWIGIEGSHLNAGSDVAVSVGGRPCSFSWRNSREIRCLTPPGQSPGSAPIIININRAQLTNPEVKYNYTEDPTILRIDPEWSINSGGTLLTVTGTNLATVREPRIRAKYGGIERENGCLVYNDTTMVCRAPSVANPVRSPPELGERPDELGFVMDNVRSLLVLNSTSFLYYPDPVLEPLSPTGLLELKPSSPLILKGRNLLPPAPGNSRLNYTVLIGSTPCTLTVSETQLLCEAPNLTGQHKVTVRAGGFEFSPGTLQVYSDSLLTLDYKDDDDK

B1: PX141-IgG1 (antibody, V domains shown)
VH: QEQLEESGGGLVKPEGSLTLTCKASGFDFSSYYYMCWVRQAPGKGLEWIGCIVTGSYGRSWYASWAKGRFTITRSTSLNTVTLQLNSLTAADTATYFCARDPFVIASSHYQNLWGPGTLVTVSS
VL: ALVMTQTPSPVSAAVGGTVTISCQSSPNIYNNYLSWYQQKPGQPPKLLIYRASNLETGVPSRFSGSGSGTQFTLTISDVQCDDAATYYCAGYKSYDNDDNAFGGGTEVVVKR
notes: chimeric anti-plexin A1 antibody, pH-dependent
The Kd is the free concentration of one partner at which half of the binding sites on the other are occupied at equilibrium, for simple one-to-one binding. Higher therefore signals a looser complex. What is called koff is the rate constant with which the complex falls apart. A word on the kon: it is a measure of how fast the partners come together. Low values mean slow association, high ones fast association. In assay [1], B1 showed a dissociation constant (Kd) of 63 nM, a koff of 0.0049 s⁻¹ and an on-rate constant (kon) of 79000 M⁻¹ s⁻¹. In [2], the Kd came to 4.2 nM, the off-rate constant (koff) is 0.00064 s⁻¹ and the on-rate constant (kon) was 150000 M⁻¹ s⁻¹.

B2: VH3/L (WT)-M73 (antibody)
heavy: QVQLQESGPGLVKPSETLSLTCAVSGHSISHDHAWSWVRQPPGEGLEWIGFISYSGITNYNPSLQGRVTISRDNSKNTLYLQMNSLRAEDTAVYYCARSLARTTAMDYWGEGTLVTVSSASTKGPSVFPLAPSSKSTSGGTAALGCLVKDYFPEPVTVSWNSGALTSGVHTFPAVLQSSGLYSLSSVVTVPSSNFGTQTYTCNVDHKPSNTKVDKTVERKSCVECPPCPAPPVAGPSVFLFPPKPKDTLMISRTPEVTCVVVDVSQEDPEVQFNWYVDGVEVHNAKTKPREEQFNSTFRVVSVLTVVHQDWLNGKEYKCKVSNKGLPAPIEKTISKTKGQPREPQVYTLPPSQEEMTKNQVSLTCLVKGFYPSDIAVEWESNGQPENNYKTTPPMLDSDGSFFLYSKLTVDKSRWQEGNVFSCSVMHEALHAHYTQKSLSLSP
light: not shown
notes: copies: 2 + 2
B2: the Kd in assay [3] and in [4] was 14000 nM in each case.

B3: CLB8-IgG1 (antibody, V domains shown)
VH: EVQLVESGGKLLKPGGSLKLSCAASGFTFSSFAMSWFRQSPEKRLEWVAEISSGGSYTYYPDTVTGRFTISRDNAKNTLYLEMSSLRSEDTAMYYCARGLWGYYALDYWGQGTSVTVSS
VL: QIVLIQSPAIMSASPGEKVTMTCSASSSVSYMYWYQQKPGSSPRLLIYDTSNLASGVPVRFSGSGSGTSYSLTISRMEAEDAATYYCQQWSGYPYTFGGGTKLEIKR
notes: chimeric anti-IL-6 antibody
Turning to B3, in the assay with human IL-6 (TORAY) [5], the dissociation constant Kd is 0.18 nM, the koff was 0.00066 s⁻¹ and the kon was 3.7e+06 M⁻¹ s⁻¹. In the assay with human IL-6 (TORAY) [6], this molecule returned a dissociation constant Kd of 0.22 nM, a koff of 0.0008 s⁻¹ and an on-rate (kon) of 3.6e+06 M⁻¹ s⁻¹.

B4: H16/L13-IgG1 (antibody, V domains shown)
VH: B3 VH with F32H, Y60H, D62H, Y103H
VL: B3 VL with N52H, L53H, Q88H, Y93H
notes: chimeric anti-IL-6 antibody, pH-dependent
As for B4, in the assay with human IL-6 (TORAY) [5], the Kd stood at 16 nM, the off-rate constant (koff) turned out to be 0.0059 s⁻¹ and the on-rate (kon) came to 370000 M⁻¹ s⁻¹. In addition, in the assay with human IL-6 (TORAY) [6], the Kd came out at 2.2 nM, the koff was found to be 0.0046 s⁻¹ and the kon was determined as 2.1e+06 M⁻¹ s⁻¹.

B5: PX268-IgG1 (antibody, V domains shown)
VH: QSLEESGGDLVKPGASLTLTCTASGFSFSSNYWIYWVRQAPGKGLEWIACIYIGSDSAYYASWAKGRFTISKTSSTTVTLQMTSLTAADTATYFCARWDNSGRALKLWGPGTLVTVSS
VL: QMLTQTASPVSAAVGGTVTIKCQSSQSVADNNHLSWYQQKPGQPPKLLIYFASTLASGVSSRFKGSGSGTQFTLTISDVQCDDAATYYCLGNYDCGSADCHAFGGGTEVVVKR
notes: chimeric anti-plexin A1 antibody
Take B5: in [1], the dissociation constant Kd was 4.4 nM, the koff was found to be 0.00027 s⁻¹ and the kon was 63000 M⁻¹ s⁻¹. In assay [2], this molecule gave a Kd of 5.4 nM, a dissociation rate constant (koff) of 0.00028 s⁻¹ and a kon of 52000 M⁻¹ s⁻¹.

B6: Fv4-IgG1 (antibody)
heavy: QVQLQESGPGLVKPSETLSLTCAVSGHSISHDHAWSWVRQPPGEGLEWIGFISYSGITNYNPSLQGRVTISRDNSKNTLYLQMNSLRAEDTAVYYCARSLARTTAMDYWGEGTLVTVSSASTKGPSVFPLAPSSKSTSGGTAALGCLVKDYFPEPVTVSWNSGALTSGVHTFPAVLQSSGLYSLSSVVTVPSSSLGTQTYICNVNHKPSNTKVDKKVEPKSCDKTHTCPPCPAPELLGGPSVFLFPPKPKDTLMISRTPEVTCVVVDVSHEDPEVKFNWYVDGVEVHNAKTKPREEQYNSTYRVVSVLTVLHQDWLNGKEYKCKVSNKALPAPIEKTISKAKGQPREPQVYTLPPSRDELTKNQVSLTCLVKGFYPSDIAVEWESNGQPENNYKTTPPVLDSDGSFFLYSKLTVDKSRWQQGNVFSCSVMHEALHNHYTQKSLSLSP
light: DIQMTQSPSSLSASVGDSVTITCQASTDISSHLNWYQQKPGKAPELLIYYGSHLLSGVPSRFSGSGSGTDFTFTISSLEAEDAATYYCGQGNRLPYTFGQGTKVEIERTVAAPSVFIFPPSDEQLKSGTASVVCLLNNFYPREAKVQWKVDNALQSGNSQESVTEQDSKDSTYSLSSTLTLSKADYEKHKVYACEVTHQGLSSPVTKSFNRGEC
notes: VH3-IgG1 and VL3-CK; copies: 2 + 2
As to B6, the affinity in assay [7], expressed as Kd, was 1990 nM.

B7: Fv4-IgG1-v1 (antibody)
heavy: QVQLQESGPGLVKPSETLSLTCAVSGHSISHDHAWSWVRQPPGEGLEWIGFISYSGITNYNPSLQGRVTISRDNSKNTLYLQMNSLRAEDTAVYYCARSLARTTAMDYWGEGTLVTVSSASTKGPSVFPLAPSSKSTSGGTAALGCLVKDYFPEPVTVSWNSGALTSGVHTFPAVLQSSGLYSLSSVVTVPSSSLGTQTYICNVNHKPSNTKVDKKVEPKSCDKTHTCPPCPAPELLGGPSVFLFPPKPKDTLYITREPEVTCVVVDVSHEDPEVKFNWYVDGVEVHNAKTKPREEQYNSTYRVVSVLTVLHQDWLNGKEYKCKVSNKALPAPIEKTISKAKGQPREPQVYTLPPSRDELTKNQVSLTCLVKGFYPSDIAVEWESNGQPENNYKTTPPVLDSDGSFFLYSKLTVDKSRWQQGNVFSCSVMHEALHNHYTQKSLSLSP
light: B6 light
notes: copies: 2 + 2
Regarding B7, the Kd in assay [8] amounted to 320 nM; in assay [9], 36600 nM.

B8: Fv4-IgG1-v2 (antibody)
heavy: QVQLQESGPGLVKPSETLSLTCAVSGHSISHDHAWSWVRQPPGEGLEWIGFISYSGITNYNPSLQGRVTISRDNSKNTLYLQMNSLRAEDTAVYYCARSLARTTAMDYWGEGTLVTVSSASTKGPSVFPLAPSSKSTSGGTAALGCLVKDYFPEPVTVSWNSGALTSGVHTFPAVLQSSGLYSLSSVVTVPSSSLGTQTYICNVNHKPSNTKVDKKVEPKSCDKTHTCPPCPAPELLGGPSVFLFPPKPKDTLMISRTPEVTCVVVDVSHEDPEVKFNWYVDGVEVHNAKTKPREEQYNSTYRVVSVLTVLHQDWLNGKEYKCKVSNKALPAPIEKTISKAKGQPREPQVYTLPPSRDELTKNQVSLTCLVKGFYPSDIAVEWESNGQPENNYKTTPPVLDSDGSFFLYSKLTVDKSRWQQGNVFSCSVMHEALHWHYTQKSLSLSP
light: B6 light
notes: copies: 2 + 2
As for B8, the dissociation constant (Kd) amounted to 110 nM in assay [7] and 11000 nM in assay [10].

B9: IgG1-F162 (antibody)
heavy: B7 heavy with Y254W, T256S, E258T, M430Y, N436Y
light: not shown
notes: copies: 2 + 2
As to B9, in assay [11], the affinity, expressed as Kd, was 170 nM.

B10: IgG1-F311 (antibody)
heavy: B7 heavy with S241K, Y254W, T256S, E258T, V310P, M430F, N436Y
light: not shown
notes: copies: 2 + 2
Regarding B10, binding in assay [12] was characterised by a dissociation constant (Kd) of 29 nM.

B11: IgG1-F163 (antibody)
heavy: B7 heavy with Y254W, T256S, E258T, M430F, N436Y
light: not shown
notes: copies: 2 + 2
B11 came in with a Kd in assay [11] of 350 nM. This counts as sub-micromolar.

B12: IgG1-F292 (antibody)
heavy: B7 heavy with S241K, T256S, E258T, V310P, E384A, M430I, N436Y
light: not shown
notes: copies: 2 + 2
As for B12, in [12], the dissociation constant (Kd) is 20 nM.

B13: IgG1-F376 (antibody)
heavy: B7 heavy with S241K, T256S, D272F, N288E, V310P, N436Y
light: not shown
notes: copies: 2 + 2
The molecule B13 had a Kd in [13] of 9.5 nM.

B14: IgG1-F379 (antibody)
heavy: B7 heavy with S241K, Y254W, T256S, V310P, Q313A, M430Y, N436Y
light: not shown
notes: copies: 2 + 2
In turn, B14 gave a Kd in assay [13] of 10 nM.

B15: IgG1-F308 (antibody)
heavy: B7 heavy with S241K, Y254W, T256S, E258T, V310P, E384A, M430Y, N436Y
light: not shown
notes: copies: 2 + 2
Turning to B15, the dissociation constant Kd in assay [12] is 18 nM.

B16: IgG1-F403 (antibody)
heavy: B7 heavy with Y254M, T256S, E258T, P259V, T309A, M430E, N436W
light: not shown
notes: M428E as printed; may be a misprint of M428L; copies: 2 + 2
For the molecule B16, binding in assay [13] was put at a Kd of 51 nM.

B17: IgG1-F455 (antibody)
heavy: B7 heavy with Y254M, T256S, E258T, P259V, T309Q, M430Y, N436Y
light: not shown
notes: copies: 2 + 2
B17 yielded a dissociation constant Kd in [14] of 25 nM.
